From PMC11992174, “Structural Insights into Bortezomib-Induced Activation of the Caseinolytic Chaperone-Protease System in Mycobacterium tuberculosis” (Nature Communications, 2025) come the findings set out here.

The data set concerns the molecule itself. As to the kind of experiment: cryo-EM structure.

B1: MtbClpX^E187Q (enzyme)
chain: not shown
notes: also called Walker B motif mutant MtbClpX
One may read the stoichiometry N as the number of molecules, sites or subunits per partner or assembly. As for B1, the “stoichiometry N” value stood at 6.
